Data published in the supplement of paper PMC7877785.
± gives the uncertainty stated by the source.

Assay: self-splicing fitness, log relative to wild type (ln ratio); higher = more splicing; Tetrahymena group I intron in knt gene, E. coli kanamycin selection, DiMSum; sequences stand for … in CUCUCU…GGAGGGAAAAGUUAUCAGGCAUGCACCUGGUAGCUAGUCUUUAAACCAAUAGAUUGCAUCGGUUUAAAAGGCAAGACCGUCAAAUUGCGGGAAAGGGGUCAACAGCCGUUCAGUACCAAGUCUCAGGGGAAACUUUGAGAUGGCCUUGCAAAGGGUAUGGUAAUAAGCUGACGGACAUGGUCCUAACCACGCAGCCAAGUCCUAAGUCAACAGAUCUUCUGUUGAUAUGGAUGCAGUUCACAGACUAAAUGUCGGUCGGGGAAGAUGUAUUCUUCUCAUAAGAUAUAGUCGGACCUCUCCUUAAUGGGAGCUAGCGGAUGAAGUGAUGCAACACUGGAGCCGCUGGGAACUAAUUUGUAUGCGAAAGUAUAUUGAUUAGUUUUGGAGUACUCGUGGUCG
Method in brief: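 Library with all eight P1ex-region intron nucleotides randomised, intron inside the knt kanamycin-resistance gene on pET-22b(+), in E. coli BL21(DE3). Cells grew overnight at 37°C or 30°C on LB agar with or without 25 μg/mL kanamycin (plus 100 μg/mL carbenicillin, 50 μM IPTG, 0.2% rhamnose), in six replicate transformations. Pooled colonies were amplicon-sequenced on Illumina HiSeq 2500. DiMSum fitness is the error-weighted combination of wild-type-normalised replicate fold changes, kanamycin versus none.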

| Sequence | self-splicing fitness (ln) (30 °C) | self-splicing fitness (ln) (37 °C) |
| --- | --- | --- |
| UUACAGCAAUAUUACGCCGA | -1.29 ± 0.2 | -0.354 ± 0.22 |
| UAGUAGCAAUAUUACGUGCC | -2.98 ± 0.25 | -2.11 ± 0.27 |
| GCUAAGCAAUAUUACGAAGU | -3.47 ± 0.17 | -3.01 ± 0.34 |
| UUGAAGCAAUAUUACGGGGU | -2.29 ± 0.2 | -2.27 ± 0.26 |
| CGAUAGCAAUAUUACGCGCC | -2.04 ± 0.33 | 0.215 ± 0.24 |
| AGUCAGCAAUAUUACGGUUC | -2.98 ± 0.11 | -1.51 ± 0.11 |
| AUGUAGCAAUAUUACGAGCC | – | -1.05 ± 0.49 |
| GGGCAGCAAUAUUACGAUGC | -1.98 ± 0.2 | -1.11 ± 0.24 |
| CACGAGCAAUAUUACGGAGG | -4.5 ± 0.36 | -2.75 ± 0.28 |
| GUAAAGCAAUAUUACGUUCC | -2.91 ± 0.18 | 0.158 ± 0.14 |
| GUCUAGCAAUAUUACGUACA | -0.922 ± 0.1 | -0.376 ± 0.1 |
| AUCGAGCAAUAUUACGUGGC | -2.91 ± 0.26 | -2.52 ± 0.49 |
| CUGUAGCAAUAUUACGAAUA | -2.54 ± 0.37 | -2.82 ± 0.48 |
| UGACAGCAAUAUUACGGCUG | -2.28 ± 0.18 | -0.623 ± 0.15 |
| GAUGAGCAAUAUUACGCAAC | -2.76 ± 0.21 | -1.85 ± 0.21 |
| AUCCAGCAAUAUUACGCAAG | -2.75 ± 0.18 | 0.207 ± 0.14 |
| UGAUAGCAAUAUUACGGCGA | -0.745 ± 0.093 | -0.477 ± 0.13 |
| ACGGAGCAAUAUUACGGGCC | -2.53 ± 0.48 | -1.06 ± 0.4 |
| CAGUAGCAAUAUUACGCCUA | -0.488 ± 0.14 | -0.218 ± 0.15 |
| CCAGAGCAAUAUUACGACGC | -4.17 ± 0.34 | -2.11 ± 0.28 |
| AUGUAGCAAUAUUACGGUGA | -1.57 ± 0.13 | -1.52 ± 0.16 |
| ACUCAGCAAUAUUACGAAUG | -1.17 ± 0.11 | -0.992 ± 0.15 |
| ACAGAGCAAUAUUACGAUUU | -3.03 ± 0.14 | -1.71 ± 0.13 |
| GGUCAGCAAUAUUACGACAU | 0.0683 ± 0.013 | 0.148 ± 0.033 |
| AGGUAGCAAUAUUACGUUCC | -0.904 ± 0.018 | -0.623 ± 0.036 |
| UCGCAGCAAUAUUACGGCUC | -3.21 ± 0.17 | -2.96 ± 0.35 |
| CACAAGCAAUAUUACGCAUG | -3.79 ± 0.18 | -2.52 ± 0.13 |

| Sequence | self-splicing fitness (ln) (30 °C) | self-splicing fitness (ln) (37 °C) |
| --- | --- | --- |
| UCGUAGCAAUAUUACGAUAG | – | -3.12 ± 0.38 |
| UGCUAGCAAUAUUACGUUGA | -2.84 ± 0.18 | -2.43 ± 0.24 |
| AUCCAGCAAUAUUACGCUUA | -0.592 ± 0.064 | 0.389 ± 0.094 |
| GGAGAGCAAUAUUACGUUGA | – | -1.97 ± 0.42 |
| AUCUAGCAAUAUUACGCCGU | -0.173 ± 0.089 | -0.324 ± 0.1 |
| CGAAAGCAAUAUUACGUGUU | -4.1 ± 0.18 | -2.54 ± 0.17 |
| UUGAAGCAAUAUUACGUACA | 0.247 ± 0.1 | 0.767 ± 0.14 |
| ACUGAGCAAUAUUACGACGG | -1.08 ± 0.1 | -0.161 ± 0.13 |
| UCGCAGCAAUAUUACGUCAG | -1.59 ± 0.12 | 0.604 ± 0.15 |
| UGAAAGCAAUAUUACGCUCG | -1.22 ± 0.14 | 0.141 ± 0.18 |
| UGGCAGCAAUAUUACGAACC | -1.66 ± 0.15 | -0.775 ± 0.2 |
| UGCCAGCAAUAUUACGCACG | -1.48 ± 0.2 | -0.233 ± 0.14 |
| UUUAAGCAAUAUUACGGUCU | -2.5 ± 0.14 | -1.66 ± 0.15 |
| CAAAAGCAAUAUUACGUGUU | -3.61 ± 0.13 | -2.37 ± 0.13 |
| GCCUAGCAAUAUUACGUAAG | -1.83 ± 0.088 | -0.757 ± 0.11 |
| AAACAGCAAUAUUACGCUGC | -4.51 ± 0.19 | -1.81 ± 0.13 |
| CAUGAGCAAUAUUACGGCAC | – | -1.42 ± 0.3 |
| UGCAAGCAAUAUUACGCGUU | -2.66 ± 0.16 | -1.29 ± 0.14 |
| UUGGAGCAAUAUUACGGUCC | -3.7 ± 0.34 | – |
| GGUAAGCAAUAUUACGGUUA | -0.532 ± 0.12 | -0.38 ± 0.096 |
| AAUGAGCAAUAUUACGCUGG | -3.22 ± 0.2 | -2.08 ± 0.25 |
| GUAAAGCAAUAUUACGCAAC | – | -0.263 ± 0.42 |
| UGCUAGCAAUAUUACGCACC | -1.91 ± 0.34 | -0.242 ± 0.37 |
| GUUAAGCAAUAUUACGUUUC | -1.75 ± 0.21 | -1.29 ± 0.18 |
| UUCAAGCAAUAUUACGCCUG | – | -1.64 ± 0.34 |
| GCGGAGCAAUAUUACGCAUC | -4.01 ± 0.27 | -1.81 ± 0.35 |
| AGAAAGCAAUAUUACGUACC | -0.284 ± 0.087 | 0.446 ± 0.12 |

| Sequence | self-splicing fitness (ln) (30 °C) | self-splicing fitness (ln) (37 °C) |
| --- | --- | --- |
| UGGUAGCAAUAUUACGUCGU | -2.83 ± 0.15 | -1.59 ± 0.16 |
| CCCGAGCAAUAUUACGGUAA | -3.81 ± 0.26 | -1.46 ± 0.16 |
| UCCAAGCAAUAUUACGGGAU | -3.88 ± 0.22 | -2.52 ± 0.16 |
| UGUCAGCAAUAUUACGGUAU | -2.46 ± 0.14 | -1.11 ± 0.12 |
| UUCGAGCAAUAUUACGUGGG | -2.45 ± 0.12 | -2.75 ± 0.19 |
| GGCUAGCAAUAUUACGAUAU | -1.79 ± 0.17 | -1.84 ± 0.16 |
| GCUAAGCAAUAUUACGCUGC | -3.12 ± 0.34 | – |
| CUAGAGCAAUAUUACGGUGC | -3.31 ± 0.26 | -2.32 ± 0.37 |
| GAAGAGCAAUAUUACGGCCA | -1.59 ± 0.3 | -1.27 ± 0.5 |
| GCUGAGCAAUAUUACGGCUU | -2.37 ± 0.24 | – |
| CCUGAGCAAUAUUACGGGAA | -2.46 ± 0.27 | -0.571 ± 0.29 |
| GGAUAGCAAUAUUACGACGU | -0.152 ± 0.28 | -0.257 ± 0.24 |
| CGUAAGCAAUAUUACGAACG | -3.04 ± 0.18 | -1.76 ± 0.22 |
| GGCCAGCAAUAUUACGUAGU | -2.25 ± 0.12 | -2.13 ± 0.12 |
| AUUAAGCAAUAUUACGAGCA | -0.83 ± 0.15 | -0.726 ± 0.18 |
| CUGGAGCAAUAUUACGAGGC | -2.02 ± 0.4 | -0.672 ± 0.47 |
| UGAAAGCAAUAUUACGCGUG | -0.951 ± 0.049 | -0.284 ± 0.064 |
| AUCGAGCAAUAUUACGUUCU | -1.32 ± 0.074 | -1 ± 0.089 |
| AGUCAGCAAUAUUACGCCAC | -3.68 ± 0.18 | -3.11 ± 0.19 |
| GUGCAGCAAUAUUACGGUUU | -0.309 ± 0.062 | -0.000827 ± 0.076 |
| UAGGAGCAAUAUUACGCGCC | – | -1.03 ± 0.37 |
| AAUUAGCAAUAUUACGUCAA | -2.11 ± 0.17 | -0.791 ± 0.22 |
| AGACAGCAAUAUUACGGGUG | -3.07 ± 0.09 | -2.37 ± 0.1 |
| UUCAAGCAAUAUUACGCUAG | -2.23 ± 0.23 | -2.32 ± 0.26 |
| ACGCAGCAAUAUUACGUCAC | -4.13 ± 0.39 | -2.54 ± 0.19 |
